Target: A/Singapore/INFIMH-16-0019/2016 hemagglutinin with a C-terminal sfGFP, GCN4 trimerization domain and Strep-tag (influenza A virus A/Singapore/INFIMH-16-0019/2016)
Experiment: negative stain electron microscopy

For “A/Singapore/INFIMH-16-0019/2016 hemagglutinin with a C-terminal sfGFP, GCN4 trimerization domain and Strep-tag”, the stoichiometry N was 3.

Source: publication PMC10966353
